Measurements reported in PMC12710124, “Pleomorphism in Wild-Type and Engineered PP7 Virus-Like Particles” (Small (Weinheim an der Bergstrasse, Germany), 2025).
Several values for one entry are separate records, joined by “and”; a condition that tells them apart may be missing. Identical values can stand only once. Like-named read-outs stand apart in the source and are kept apart here.

B1: PP7 coat protein (wild-type, monomeric) (natural protein)
chain: MSKTIVLSVGEATRTLTEIQSTADRQIFEEKVGPLVGRLRLTASLRQNGAKTAYRVNLKLDQADVVDCSTSVCGELPKVRYTQVWSHDVTIVANSTEASRKSLYDLTKSLVATSQVEDLVVNLVPLGR
notes: Self-assembles in the expression host into VLPs; also called PP7 CP; PP7 capsid protein; source: bacterial expression host (E. coli), recombinantly expressed, purified as VLPs

Tests used:
Test in all cases: cryo-EM structure; 3D reconstruction of purified VLPs self-assembled in the bacterial expression host; closed cages (T = 3, T = 4, D5, D5E, C2, C3) and tubes
[1] = target: PP7-AY-PP7, PP7 coat protein dimer with AY linker (Pseudomonas phage PP7)
[2] = target: PP7-AY-PP7, PP7 coat protein dimer with AY linker (Pseudomonas phage PP7); remark: listed apart in the source
[3] = target: the molecule itself

Molecule	stoichiometry N [1]	stoichiometry N [2]	stoichiometry N [3]
PP7-AY-PP7, PP7 coat protein dimer with AY linker	87 copies	102 copies	
B1			150 coat proteins and 174 copies and 204 copies
